For 97 sequences, fraction ligated results are on record in the supplement of paper PMC6755084.

This data set concerns F1*sub RNA substrate (template-directed ligation). The data set can be described thus: fraction ligated after 30 min (ligated reads / total reads); higher = more ligase activity; sequences stand for … in GAGACCGCAACTGAAAAGTTGT…AGTTCTGCACGTAGAAGCAAAAGGC
The settings on record: 42 °C. The essentials:
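Templates from an oligo pool were PCR-amplified, transcribed with T7 and gel-purified to give the ribozyme variants. Ligated and unligated products were separated on gel, reverse transcribed using barcoded primers, and read on a MiSeq. A quality filter of ≥20 was applied to core bases. Fraction ligated was taken as ligated reads as a share of all reads per variant.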
As for “TATCACTTTCTAAGACACTTTGGTGGGTTGA [3d1488]”, the fraction ligated was 0.101. Next, “TATCACTTTCTAAGACATTTGGATGGGTTGA [3d1485]”: 0.818; “TATCACTTTCTAAGACCTTTGGATGGGTTGA [3d1484]”: 0.783.

Turning to “TATCACTTTCTAAGCACTTTGGATGGGTTGA [3d1482]”, the fraction ligated is 0.788. As for “TATCACTTTCTAGACACTTTGGATGGGTTGA [3d1480]”, the fraction ligated came out at 0.765. The sequence “TATCACTTTGAAGACACTTTGGATGGGTTGA [3d1465]” registered a fraction ligated of 0.819. In turn, “TATCACTTTGTAAACACTTTGGATGGGTTGA [3d1467]” returned a fraction ligated of 0.823. “TATCACTTTGTAAGAACTTTGGATGGGTTGA [3d1469]” came in with a fraction ligated of 0.866. The sequence “TATCACTTTGTAAGACACTTGGATGGGTTGA [3d1472]” came in with a fraction ligated of 0.802.

Sequence “TATCACTTTGTAAGACACTTTGATGGGTTGA [3d1473]” came in with a fraction ligated of 0.793.

With “TATCACTTTGTAAGACACTTTGGAGGGTTGA [3d1475]”, the fraction ligated was 0.0352.

Regarding “TATCACTTTGTAAGACACTTTGGATGGGTTA [3d1477]”, the fraction ligated is 0.776. Consider “TATCACTTTGTAAGACACTTTGGATGGGTTG [3d1478]”, for which the fraction ligated came to 0.82. Next, “TATCACTTTGTAAGACACTTTGGATGGGTTGA [2d147]”: 0.838. Turning to “TATCACTTTGTAAGACACTTTGGATGGTTGA [3d1476]”, the fraction ligated worked out at 0.119. Regarding “TATCACTTTGTAAGACACTTTGGTGGGTTGA [3d1474]”, the fraction ligated was determined as 0.0671. In the case of “TATCACTTTGTAAGACATTTGGATGGGTTGA [3d1471]”, the fraction ligated is 0.837. For “TATCACTTTGTAAGACCTTTGGATGGGTTGA [3d1470]”, the fraction ligated is 0.769.

Turning to “TATCACTTTGTAAGCACTTTGGATGGGTTGA [3d1468]”, the fraction ligated is 0.783. “TATCACTTTGTAGACACTTTGGATGGGTTGA [3d1466]” showed a fraction ligated of 0.843. In the case of “TATCACTTTTAAGACACTTTGGATGGGTTGA [3d1464]” it was 0.768. Sequence “TATCAGTCGTAAGACACTTTGGATGGGTTGA [3d1121]” gave a fraction ligated of 0.764. Take “TATCATGCGTAAGACACTTTGGATGGGTTGA [3d1123]”: the fraction ligated worked out at 0.833. Next, “TATCATGTCGAAGACACTTTGGATGGGTTGA [3d1126]”: 0.792. In the case of “TATCATGTCGTAAACACTTTGGATGGGTTGA [3d1128]” it was 0.765; in that of “TATCATGTCGTAAGAACTTTGGATGGGTTGA [3d1130]”, 0.848; in that of “TATCATGTCGTAAGACACTTGGATGGGTTGA [3d1133]”, 0.776. Regarding “TATCATGTCGTAAGACACTTTGATGGGTTGA [3d1134]”, the fraction ligated turned out to be 0.816. The sequence “TATCATGTCGTAAGACACTTTGGAGGGTTGA [3d1136]” displayed a fraction ligated of 0.0722. In the case of “TATCATGTCGTAAGACACTTTGGATGGGTTA [3d1138]” it was 0.641. “TATCATGTCGTAAGACACTTTGGATGGGTTG [3d1139]” registered a fraction ligated of 0.784. Next, “TATCATGTCGTAAGACACTTTGGATGGGTTGA [2d109]”: 0.792; “TATCATGTCGTAAGACACTTTGGATGGTTGA [3d1137]”: 0.268. For “TATCATGTCGTAAGACACTTTGGTGGGTTGA [3d1135]”, the fraction ligated was found to be 0.523. The sequence “TATCATGTCGTAAGACATTTGGATGGGTTGA [3d1132]” displayed a fraction ligated of 0.801. On to “TATCATGTCGTAAGACCTTTGGATGGGTTGA [3d1131]”, for which the fraction ligated came to 0.778.

In turn, “TATCATGTCGTAAGCACTTTGGATGGGTTGA [3d1129]” came in with a fraction ligated of 0.761. As for “TATCATGTCGTAGACACTTTGGATGGGTTGA [3d1127]”, the fraction ligated was 0.817. In turn, “TATCATGTCTAAGACACTTTGGATGGGTTGA [3d1125]” returned a fraction ligated of 0.759. The sequence “TATCATGTGTAAGACACTTTGGATGGGTTGA [3d1124]” had a fraction ligated of 0.84.

Regarding “TATCATTCGTAAGACACTTTGGATGGGTTGA [3d1122]”, the fraction ligated is 0.776. Sequence “TATCATTGCGAAGACACTTTGGATGGGTTGA [3d1158]” came in with a fraction ligated of 0.8. Sequence “TATCATTGCGTAAACACTTTGGATGGGTTGA [3d1160]” registered a fraction ligated of 0.814. In turn, “TATCATTGCGTAAGAACTTTGGATGGGTTGA [3d1162]” came in with a fraction ligated of 0.837.

Regarding “TATCATTGCGTAAGACACTTGGATGGGTTGA [3d1165]”, the fraction ligated came to 0.773.

The sequence “TATCATTGCGTAAGACACTTTGATGGGTTGA [3d1166]” registered a fraction ligated of 0.681. The sequence “TATCATTGCGTAAGACACTTTGGAGGGTTGA [3d1168]” had a fraction ligated of 0.0323. In turn, “TATCATTGCGTAAGACACTTTGGATGGGTTA [3d1170]” yielded a fraction ligated of 0.447.

“TATCATTGCGTAAGACACTTTGGATGGGTTG [3d1171]”: the fraction ligated was found to be 0.815. For the sequence “TATCATTGCGTAAGACACTTTGGATGGGTTGA [2d111]”, the fraction ligated came out at 0.819. “TATCATTGCGTAAGACACTTTGGATGGTTGA [3d1169]” showed a fraction ligated of 0.0894. Next, “TATCATTGCGTAAGACACTTTGGTGGGTTGA [3d1167]”: 0.0667; “TATCATTGCGTAAGACATTTGGATGGGTTGA [3d1164]”: 0.802. Sequence “TATCATTGCGTAAGACCTTTGGATGGGTTGA [3d1163]” had a fraction ligated of 0.815. As for “TATCATTGCGTAAGCACTTTGGATGGGTTGA [3d1161]”, the fraction ligated was found to be 0.799.

Sequence “TATCATTGCGTAGACACTTTGGATGGGTTGA [3d1159]” displayed a fraction ligated of 0.823. “TATCATTGCTAAGACACTTTGGATGGGTTGA [3d1157]” had a fraction ligated of 0.784.

As to “TATCATTGGTAAGACACTTTGGATGGGTTGA [3d1156]”, the fraction ligated turned out to be 0.809. In the case of “TATCATTGTCAAGACACTTTGGATGGGTTGA [3d1187]”, the fraction ligated amounted to 0.783. Sequence “TATCATTGTCGAAACACTTTGGATGGGTTGA [3d1202]” showed a fraction ligated of 0.81. “TATCATTGTCGAAGAACTTTGGATGGGTTGA [3d1204]” registered a fraction ligated of 0.809. Take “TATCATTGTCGAAGACACTTGGATGGGTTGA [3d1207]”: the fraction ligated stood at 0.771. As to “TATCATTGTCGAAGACACTTTGATGGGTTGA [3d1208]”, the fraction ligated was determined as 0.772. In the case of “TATCATTGTCGAAGACACTTTGGAGGGTTGA [3d1210]” it was 0.0625; in that of “TATCATTGTCGAAGACACTTTGGATGGGTTA [3d1212]”, 0.475; in that of “TATCATTGTCGAAGACACTTTGGATGGGTTG [3d1213]”, 0.796.

Sequence “TATCATTGTCGAAGACACTTTGGATGGGTTGA [2d114]” returned a fraction ligated of 0.798. “TATCATTGTCGAAGACACTTTGGATGGTTGA [3d1211]”: the fraction ligated was 0.21. “TATCATTGTCGAAGACACTTTGGTGGGTTGA [3d1209]”: the fraction ligated was 0.229. Regarding “TATCATTGTCGAAGACATTTGGATGGGTTGA [3d1206]”, the fraction ligated was 0.794. In turn, “TATCATTGTCGAAGACCTTTGGATGGGTTGA [3d1205]” returned a fraction ligated of 0.768. In turn, “TATCATTGTCGAAGCACTTTGGATGGGTTGA [3d1203]” returned a fraction ligated of 0.784.

As to “TATCATTGTCGAGACACTTTGGATGGGTTGA [3d1201]”, the fraction ligated was 0.783. Sequence “TATCATTGTCGTAAAACTTTGGATGGGTTGA [3d1227]” showed a fraction ligated of 0.787. “TATCATTGTCGTAAACACTTGGATGGGTTGA [3d1230]” displayed a fraction ligated of 0.778.

As for “TATCATTGTCGTAAACACTTTGATGGGTTGA [3d1231]”, the fraction ligated was found to be 0.597. Next, “TATCATTGTCGTAAACACTTTGGAGGGTTGA [3d1233]”: 0.0387; “TATCATTGTCGTAAACACTTTGGATGGGTTA [3d1235]”: 0.472. On to “TATCATTGTCGTAAACACTTTGGATGGGTTG [3d1236]”, for which the fraction ligated is 0.809. “TATCATTGTCGTAAACACTTTGGATGGTTGA [3d1234]” had a fraction ligated of 0.0592. Next, “TATCATTGTCGTAAACACTTTGGTGGGTTGA [3d1232]”: 0.0641. “TATCATTGTCGTAAACATTTGGATGGGTTGA [3d1229]” registered a fraction ligated of 0.798. For “TATCATTGTCGTAAACCTTTGGATGGGTTGA [3d1228]”, the fraction ligated came to 0.79. As for “TATCATTGTCGTAACACTTTGGATGGGTTGA [3d1215]”, the fraction ligated was 0.815. Next, “TATCATTGTCGTAAGAACTTGGATGGGTTGA [3d1248]”: 0.831. Regarding “TATCATTGTCGTAAGAACTTTGATGGGTTGA [3d1249]”, the fraction ligated worked out at 0.545. In the case of “TATCATTGTCGTAAGAACTTTGGAGGGTTGA [3d1251]” it was 0.0299; in that of “TATCATTGTCGTAAGAACTTTGGATGGGTTA [3d1253]”, 0.623. For “TATCATTGTCGTAAGAACTTTGGATGGGTTG [3d1254]”, the fraction ligated was 0.815. “TATCATTGTCGTAAGAACTTTGGATGGTTGA [3d1252]” had a fraction ligated of 0.0537.

“TATCATTGTCGTAAGAACTTTGGTGGGTTGA [3d1250]” registered a fraction ligated of 0.0672. In the case of “TATCATTGTCGTAAGAATTTGGATGGGTTGA [3d1247]”, the fraction ligated was found to be 0.796. Turning to “TATCATTGTCGTAAGACACTGGATGGGTTGA [3d1269]”, the fraction ligated worked out at 0.783. Regarding “TATCATTGTCGTAAGACACTTGATGGGTTGA [3d1270]”, the fraction ligated is 0.779.

Turning to “TATCATTGTCGTAAGACACTTGGAGGGTTGA [3d1272]”, the fraction ligated amounted to 0.183. Sequence “TATCATTGTCGTAAGACACTTGGATGGGTTA [3d1274]” yielded a fraction ligated of 0.728. Turning to “TATCATTGTCGTAAGACACTTGGATGGGTTG [3d1275]”, the fraction ligated came to 0.8.
